Source: US7943337B2, “Method for screening a protease” (Asahi Kasei Pharma Corporation, priority 2003, dated 2011)

Experiments:
Assay type in all cases: biochemical
[1] = Screening of protease (pH 3.5), control solution without substrate; details: pH 3.5, no substrate; 550 nm, reference 595 nm
Protocol: (§1) A screening method is shown in which a protease that cleaves a glycated peptide from N-terminal-glycated pentapeptide of a hemoglobin β-chain without substantially cleaving a glycated amino acid or glycated peptide from N-terminal-glycated pentapeptide of a hemoglobin α-chain. Each 10 μl of a sample for screening was placed in 3 wells of a 96-well plate, respectively. Then, the first well was supplemented with 50 μl of an α-solution, the second well was supplemented with 50 μl of a β-solution, and the third well was supplemented with 50 μl of a control solution. After the plate was incubated at 37° C. for 60 minutes, 50 μl of pH-regulating solution and 50 μl of a developing solution were added, and the whole was left at room temperature for 30 minutes. Then, the absorbance at a measuring wavelength of 550 nm and a reference wavelength of 595 nm were determined using a Microplate Reader (model 550, manufactured by Bio-Rad), to select a sample having a difference in the absorbance between the β-solution-supplemented well and the control solution-supplemented well larger than a difference in the absorbance between the α-solution-supplemented well and the control solution-supplemented well. Thus the protease of object was screened. The samples to be used include: carboxypeptidase B (manufactured by Sigma-Aldrich Corp.); carboxypeptidase W (manufactured by Wako Pure Chemical Industries, Ltd.); carboxypeptidase Y (manufactured by Oriental Yeast Co., Ltd.); protease (type XXVII nagase: manufactured by Sigma-Aldrich Corp.); protease (type VIII Subtilisin Carlsberg: manufactured by Sigma-Aldrich Corp.); protease (type XXIV Bacterial: manufactured by Sigma-Aldrich Corp.); Proteinase K (manufactured by Wako Pure Chemical Industries, Ltd.); neutral proteinase (manufactured by Toyobo Co., Ltd.); and distilled water. To confirm a degree of color development caused by a developing solution, 10 μl of 1 mM FVH (manufactured by Peptide Institute Inc.) and 1 mM FVL (manufactured by Peptide Institute Inc.) were placed in a well severally, followed by adding 50 μl of the control solution. The whole was incubated at 37° C. for 60 minutes. Then, 50 μl of a pH-regulating solution and 50 μl of the developing solution were added and the whole was left at room temperature for 30 minutes, followed by the determination in a similar manner as described above.
(§2) 50 mM Acetate-sodium acetate (pH3.5)
(§3) 0.09% 4-aminoantipyrine (manufactured by Wako Pure Chemical Industries, Ltd.)
(§4) 0.06% TODB (manufactured by Dojindo Laboratories)
(§5) 15 U/ml Peroxidase (manufactured by Sigma-Aldrich Corp.)

[2] = Screening of protease for hemoglobin A1c determination (pH 7.5); details: for β-Solution (absorbance, RAW DATA): pH 7.5, 37° C. 60 minutes, 550 nm, reference 595 nm, FOD923 developing solution; for specificity for β-chain over α-chain N-terminal glycated pentapeptide: pH 7.5
Protocol: as §1, with “μl of distilled water and 50” for “μl of pH-regulating solution and 50”, “Co., Ltd.); carboxypeptidase A (manufactured by Wako Pure Chemical Industries, Ltd.); thermolysin (manufactured by Wako Pure Chemical Industries, Ltd.); and distilled” for “Co., Ltd.); and distilled”, “μl of distilled water and 50” for “μl of a pH-regulating solution and 50”
(§6) 0.2 mM β-Glycated pentapeptide (manufactured by Peptide Institute Inc.)
(§7) 0.09% 4-Aminoantipyrine (manufactured by Wako Pure Chemical Industries, Ltd.)
as §4, §5
(§8) Various bacteria were cultured with shaking in Difco Lactobacilli MRS Broth (manufactured by Becton, Dickinson and Company), a MM medium (2.5% mannose, 2.5% beer yeast extract, pH7.0), and a YPG medium (2% glucose, 1% polypeptone, 2% yeast extract, 0.1% potassium dihydrogen phosphate, 0.05% magnesium sulfate heptahydrate, pH 7.0) at a temperature of from 28 to 30° C. for 1 to 7 days. Then, cells were removed by centrifugation from the culture solutions to obtain culture supernatants. A sample was prepared by diluting the obtained culture supernatants 10-fold with a 10 mM potassium phosphate buffer (pH7.5), and the determination was performed in a similar manner as Example 1.

[3] = Screening of protease for hemoglobin A1c determination (pH 3.5); details: pH 3.5, 37° C. 60 minutes; 550 nm, reference 595 nm; FOD923 developing solution
Protocol: as §1, §2
(§9) 0.2 mM α-Glycated pentapeptide (manufactured by Peptide Institute Inc.)
as §3, §4, §5

[4] = Screening of protease for hemoglobin A1c determination (pH 7.5); details: pH 7.5, 37° C. 60 minutes; 550 nm, reference 595 nm; FOD923 developing solution
Protocol: as §1, with “μl of distilled water and 50” for “μl of pH-regulating solution and 50”, “Co., Ltd.); carboxypeptidase A (manufactured by Wako Pure Chemical Industries, Ltd.); thermolysin (manufactured by Wako Pure Chemical Industries, Ltd.); and distilled” for “Co., Ltd.); and distilled”, “μl of distilled water and 50” for “μl of a pH-regulating solution and 50”
as §9, §7, §4, §5, §8

[5] = Screening of protease for hemoglobin A1c determination (pH 3.5); details: for β-Solution (absorbance, RAW DATA): pH 3.5, 37° C. 60 minutes, 550 nm, reference 595 nm, FOD923 developing solution
Protocol: as §1, §2, §6, §3, §4, §5

[6] = Screening of protease (pH 7.5), control solution without substrate; details: pH 7.5, no substrate; 550 nm, reference 595 nm
Protocol: as §1, with “μl of distilled water and 50” for “μl of pH-regulating solution and 50”, “Co., Ltd.); carboxypeptidase A (manufactured by Wako Pure Chemical Industries, Ltd.); thermolysin (manufactured by Wako Pure Chemical Industries, Ltd.); and distilled” for “Co., Ltd.); and distilled”, “μl of distilled water and 50” for “μl of a pH-regulating solution and 50”
as §7, §4, §5, §8

Molecule | control solution (absorbance, RAW DATA) [1] | β-Solution (absorbance, RAW DATA) [2] | α-Solution (absorbance, RAW DATA) [3] | α-Solution (absorbance, RAW DATA) [4] | β-Solution (absorbance, RAW DATA) [5] | control solution (absorbance, RAW DATA) [6] | specificity for β-chain over α-chain N-terminal glycated pentapeptide [2] | specificity for β-chain over α-chain N-terminal glycated pentapeptide ([5]; pH 3.5)
protease type VIII: protease (type VIII Subtilisin Carlsberg: manufactured by Sigma-Aldrich Corp.) (protein, UniProt P00780 106-379, looked up) Subtilisin Carlsberg: AQTVPYGIPLIKADKVQAQGFKGANVKVAVLDTGIQASHPDLNVVGGASFVAGEAYNTDGNGHGTHVAGTVAALDNTTGVLGVAPSVSLYAVKVLNSSGSGSYSGIVSGIEWATTNGMDVINMSLGGASGSTAMKQAVDNAYAKGVVVVAAAGNSGSSGNTNTIGYPAKYDSVIAVGAVDSNSNRASFSSVGAELEVMAPGAGVYSTYPTNTYATLNGTSMASPHVAGAAALILSKHPNLSASQVRNRLSSTATYLGSSFYYGKGLINVEAAAQ | 0.016 | 0.020 | 0.019 | 0.023 | 0.018 | 0.012 |  | 
thermolysin: thermolysin (manufactured by Wako Pure Chemical Industries, Ltd.) (protein, UniProt P00800 233-548, looked up) Thermolysin: ITGTSTVGVGRGVLGDQKNINTTYSTYYYLQDNTRGNGIFTYDAKYRTTLPGSLWADADNQFFASYDAPAVDAHYYAGVTYDYYKNVHNRLSYDGNNAAIRSSVHYSQGYNNAFWNGSQMVYGDGDGQTFIPLSGGIDVVAHELTHAVTDYTAGLIYQNESGAINEAISDIFGTLVEFYANKNPDWEIGEDVYTPGISGDSLRSMSDPAKYGDPDHYSKRYTGTQDNGGVHINSGIINKAAYLISQGGTHYGVSVVGIGRDKLGKIFYRALTQYLTPTSNFSQLRAAAVQSATDLYGSTSQEVASVKQAFDAVGVK |  | 0.249 |  | 0.053 |  | 0.055 | cleave a glycated peptide from an N-terminal glycated pentapeptide of a hemoglobin β-chain without substantially cleaving | 
carboxypeptidase Y: carboxypeptidase Y (manufactured by Oriental Yeast Co., Ltd.) (protein, UniProt P00729 112-532, looked up) Carboxypeptidase Y: KIKDPKILGIDPNVTQYTGYLDVEDEDKHFFFWTFESRNDPAKDPVILWLNGGPGCSSLTGLFFELGPSSIGPDLKPIGNPYSWNSNATVIFLDQPVNVGFSYSGSSGVSNTVAAGKDVYNFLELFFDQFPEYVNKGQDFHIAGESYAGHYIPVFASEILSHKDRNFNLTSVLIGNGLTDPLTQYNYYEPMACGEGGEPSVLPSEECSAMEDSLERCLGLIESCYDSQSVWSCVPATIYCNNAQLAPYQRTGRNVYDIRKDCEGGNLCYPTLQDIDDYLNQDYVKEAVGAEVDHYESCNFDINRNFLFAGDWMKPYHTAVTDLLNQDLPILVYAGDKDFICNWLGNKAWTDVLPWKYDEEFASQKVRNWTASITDEVAGEVKSYKHFTYLRVFNGGHMVPFDVPENALSMVNEWIHGGFSL | 0.034 | 0.209 | 0.195 | 0.240 | 0.206 | 0.031 |  | 
proteinase K: Proteinase K (manufactured by Wako Pure Chemical Industries, Ltd.) (protein, UniProt P06873 106-384, looked up) Proteinase K: AAQTNAPWGLARISSTSPGTSTYYYDESAGQGSCVYVIDTGIEASHPEFEGRAQMVKTYYYSSRDGNGHGTHCAGTVGSRTYGVAKKTQLFGVKVLDDNGSGQYSTIIAGMDFVASDKNNRNCPKGVVASLSLGGGYSSSVNSAAARLQSSGVMVAVAAGNNNADARNYSPASEPSVCTVGASDRYDRRSSFSNYGSVLDIFGPGTSILSTWIGGSTRSISGTSMATPHVAGLAAYLMTLGKTTAASACRYIADTANKGDLSNIPFGTVNLLAYNNYQA | 0.023 | 0.077 | 0.024 | 0.031 | 0.026 | 0.017 |  | 
carboxypeptidase A: carboxypeptidase A (manufactured by Wako Pure Chemical Industries, Ltd.) (protein, UniProt P00730 111-419, looked up) Carboxypeptidase A1: ARSTNTFNYATYHTLDEIYDFMDLLVAEHPQLVSKLQIGRSYEGRPIYVLKFSTGGSNRPAIWIDLGIHSREWITQATGVWFAKKFTEDYGQDPSFTAILDSMDIFLEIVTNPDGFAFTHSQNRLWRKTRSVTSSSLCVGVDANRNWDAGFGKAGASSSPCSETYHGKYANSEVEVKSIVDFVKDHGNFKAFLSIHSYSQLLLYPYGYTTQSIPDKTELNQVAKSAVEALKSLYGTSYKYGSIITTIYQASGGSIDWSYNQGIKYSFTFELRDTGRYGFLLPASQIIPTAQETWLGVLTIMEHTLNNLY |  | 0.145 |  | 0.022 |  | 0.018 |  | 
carboxypeptidase B: carboxypeptidase B (manufactured by Sigma-Aldrich Corp.) (protein, UniProt P09955 111-416, looked up) Carboxypeptidase B: TTGHSYEKYNNWETIEAWTKQVTSENPDLISRTAIGTTFLGNNIYLLKVGKPGPNKPAIFMDCGFHAREWISHAFCQWFVREAVLTYGYESHMTEFLNKLDFYVLPVLNIDGYIYTWTKNRMWRKTRSTNAGTTCIGTDPNRNFDAGWCTTGASTDPCDETYCGSAAESEKETKALADFIRNNLSSIKAYLTIHSYSQMILYPYSYDYKLPENNAELNNLAKAAVKELATLYGTKYTYGPGATTIYPAAGGSDDWAYDQGIKYSFTFELRDKGRYGFILPESQIQATCEETMLAIKYVTNYVLGHL | 0.060 | 0.127 | 0.063 | 0.036 | 0.147 | 0.028 | cleave a glycated peptide from an N-terminal glycated pentapeptide of a hemoglobin β-chain without substantially cleaving | cleaves a glycated peptide from an N-terminal glycated pentapeptide of a hemoglobin β-chain without substantially cleaving
